Measurements from the RNAGym collection of RNA variant scans (doi:10.7554/elife.90254).

B1: OR4K15 (parent)
chain: GUUAACGGUCAUAGGCCAUGGAAACUAGGAGCACCAUUUCGCUGCCAGUGAAGAAAUGAACAAAGAAAAUCUGGGCCAGGCAGGCAUCAAAAGAAAUAGUCUUGCGCUCAACCAGAAAGUCUGUAAUCAUUUUAAGGGUA

Variants of: B1
Assay: self-cleavage, relative activity (ratio to wild type); higher = more cleavage; in vitro, sequencing; the parent is a self-cleaving ribozyme

Variant	self-cleavage
G15C A111U	0.11
G15A A114G	0.06
A13U U102C	1.56
A13U A94G	0.55
G14C A18G	1.59
U12C A47G	1.3
A13G U57C	1.18
A13G U57A	1.24
A13U A98U	2.18
C17U A69G	0.62
G14U A111G	0.05
A13G A94U	1.4
A13G A94G	0.6
A13G U38A	0.78
G14U A126G	1.1
G14U A66G	0.9
A13G A110G	0.13
C16A U127C	0.13
G14C A51G	1.01
G14U A90G	1.34
G15C A86U	1.92
G15A A116G	0.52
A13U A36G	0.89
U12C A18C	0.58

Variant	self-cleavage
G15U A68C	1.71
G14A A56G	1.1
A13U A63G	1.3
A13U A63U	1.13
U12C A94G	1.34
G14C A59G	1.46
U12C U72C	0.18
U12C A116G	0.73
A13G A114G	0.31
U12C U97C	0.65
G14A A95G	1.24
A13U A96G	1.14
A13U A52G	1.18
A13U A52U	1.26
C16U A111U	0.16
G14A U127C	0.28
A13G C40U	1.03
U12C C105U	0.23
U12C A52G	0.83
A13U U124C	1.37
G14A U43C	0.99
G14U U37C	1.24
A13U A82G	0.84
A13G A96U	1.14

Variant	self-cleavage
A13G A54U	0.74
A13G A54G	0.81
C17U A91G	0.42
G14C A118U	0.78
A13G A90U	0.25
C16U U97C	1.23
U12G U100C	1.76
G15A U102C	1.98
A13G A92G	1.22
A13G A135G	0.79
A13G C34G	0.83
G14A A51G	1.18
G15A A111G	0.01
G14U C105U	0.07
A13U U57C	0.64
G14A U72C	0.22
G14A A117G	1.22
A13C U127C	0.65
C16A A126G	1.2
A13C A23G	1.36
A13U U87A	1.61
U12C A36G	1.44
A13U A56G	1.44
C16U A52G	0.37

Variant	self-cleavage
C16U U122C	1.91
U12G A82U	0.3
U12C U57C	1.27
A13G U97C	0.78
C17G A54G	0.86
U12C A90U	0.94
A13U U72C	0.49
A13U U122A	1.5
A13U U122C	0.56
C16U A82U	0.21
G14A U26A	1.2
A13U A55G	0.85
C17A U43A	1.18
C16A	1.69
C16G	0.85
C16U	1.25
G15C A91U	0.88
A13U A68C	1.86
G14A A118G	0.59
C16G A69G	1.02
C17U A116G	0.47
A13U A90U	1.8
C16U U70C	0.79
G15C U39C	1.26

Variant	self-cleavage
A13G G80A	0.43
A13G G80C	0.19
C16U A95G	1.21
G14U A116U	0.11
U12C A78U	0.34
G15A U131C	0.87
C17A G20A	1.56
C17U A54G	1.02
G15A U139C	1.3
U12C A118U	0.22
A13U A125U	1.71
A13G A82G	0.47
C17U A22G	1.48
C16U A18U	1.52
U12C A51U	1.38
U12C A89G	1.35
U12C A89U	1.82
U12C G99A	0.97
A13G U131C	1.01
C16A A134G	0.96
U12C U130C	0.95
U12C G84C	0.31
U12C A82U	0.24
A13U U39C	1.04

Variant	self-cleavage
C16U A27G	0.94
G14U A63G	1.14
U12C A69G	1.68
C17A G73A	0.16
C16U U102C	2.01
A13U A89G	1.51
G15A U70A	0.96
A13G A118G	0.96
A13G A118U	0.59
A13G A60G	1.33
C16U U43A	0.54
U12C A55G	1.34
C16U G80A	0.1
G15A A47G	1.33
U12C U102C	1.22
G15C A94G	0.33
C16G U37C	1.55
A13G A126G	1.04
C16G U127A	2.18
A13U A64G	1.04
G15A A36U	1.01
C16G A135G	0.74
A13C A95G	1.32
G15C A24G	0.88

Variant	self-cleavage
A13U A60G	0.32
U12G U102C	1.11
G14A A33G	0.87
C16A U124A	0.4
C17U A27C	0.44
A13G U122A	0.97
A13G U122C	0.76
C17U A110U	1.55
C16G G83A	1.21
A13G C17U	1.46
G15U A62G	2.71
C16A A89G	1.37
C17U A33G	1.07
G15A A94G	1.73
A13G U70C	0.87
A13G A78U	0.6
U12C U103C	1.41
U12C U70C	1.25
G15C U49C	1.78
C17U A51G	0.85
U12C A126G	0.55
C16G U49C	0.92
A13G A62G	1.25
U12C A13U	0.95

Variant	self-cleavage
U12C A13G	1.16
A13U A47G	0.93
G14U A94G	1.84
C16A A55G	0.37
C17U A62G	0.91
A13G C105A	0.15
A13U A78G	0.2
G14A U130C	0.45
C17U A117G	1.84
C16G A86G	0.51
C16U A90G	1.55
A13G A47G	0.13
U12C U122C	1.05
G15A A92G	1.65
G14U A24G	1.23
G14C A82G	0.32
A13U A116U	0.25
G14C A30G	1.66
A13U A18U	0.56
A13U U43C	1.24
C16U A117G	1.84
A13G U124C	0.57
G15C U43C	1.93
G14A A89G	0.65

Variant	self-cleavage
C17U A67G	1.26
A13G A98U	1.29
U12C A60G	1.34
C17U A89G	1.23
G14A A114U	0.01
G14A A18U	0.99
G14A A47G	0.81
A13U A91U	1.34
A13G C71U	0.46
A13G U133C	1.84
U12G A60G	1.59
G14A A22G	0.51
A13G U139A	1.51
A13G U139C	1.13
A13G U102C	1.18
U12C A114G	0.19
U12C A114U	0.14
C17U C109A	0.2
A13G A36G	0.49
U12C G28A	1.29
C16G A78G	0.55
C16G A78U	0.66
U12C A117G	1.33
G14A A129U	0.41

Variant	self-cleavage
U12C U38A	0.89
A13U A62U	1.05
A13G G136A	0.95
U12C C42U	1.16
A13G G137U	1.06
A13G A23U	1.32
C17U G83A	1.07
A13U A86G	1.62
C17G G79A	0.18
G14A U19C	1.44
U12G	1.33
U12C	1.01
A13G U39G	1.52
A13G U39C	0.92
A13C G79U	0.17
U12C A23G	0.76
U12C C45U	1.85
G14U G48A	1.52
G15U A78G	0.14
U12C A96G	1.02
A13G A63U	0.77
A13G A63G	0.97
C16U U132C	1.11
U12C A125G	0.5

Variant	self-cleavage
A13G A68G	0.65
A13G A86U	1.21
G14U A118U	0.4
G15A A54G	1.41
G14A A91G	1.67
G14U A33U	1.38
G14A A36G	1.17
U12C A59G	0.86
C16U A68G	1.42
A13U G79A	0.19
A13U A129G	1.57
A13G U108A	0.12
A13G U108C	0.05
A13G U108G	0
A13G A125U	0.88
G14A U122A	1.16
U12C A62G	1.18
G15A A56G	1.45
U12C A22U	0.66
U12C A64G	0.41
U12C U132C	0.2
U12C U132A	0.67
A13G U87C	1.5
C17U G74A	0.13

Variant	self-cleavage
G15C A67G	1.63
G14U A92G	1.2
G14U A135C	1.41
G14A A92G	0.96
A13U A66U	1.15
C16U A69U	0.66
C16U A69G	0.74
C16U C32G	0.15
G14A A59G	1.27
A13G C32U	1.2
A13G C77U	1.1
U12C A54G	1.22
U12C A54U	1.51
A13U U130C	0.69
C16G A54G	0.89
A13G A116U	0.41
G14A A54U	1.55
G14C A55G	1.34
A13G U132C	0.41
U12C A91G	0.8
C16U A129C	1.3
C17U A64G	0.65
G14A U70C	0.96
G14C U103C	1.13

Variant	self-cleavage
C17A A117G	1.53
A13G A24G	1.05
G14A G106A	0.02
G14A A67G	1.66
U12G A22G	1.13
G15A C113U	0.03
A13G U100C	1.34
A13G A59G	0.59
U12C U87A	0.96
A13G U72A	0.23
A13G G41U	1.28
A13G G41C	1.02
A13G G41A	0.97
C16A G80U	0.12
U12G A33G	1.04
C16G A68U	0.89
G15C A68C	2.44
U12C U49C	0.44
U12C U49G	0.74
G14U A96U	1.13
U12C G44A	2.15
G14U A82U	0.13
A13G A89G	1.31
A13G A89C	0

Variant	self-cleavage
A13G G53A	1.11
G14U A22G	1.12
U12A U122C	1.26
A13G G15U	1.33
C16A A18G	1.18
U12C U100A	0.63
C17A U108C	0.02
G15A A27G	1.23
G14A A55G	1.58
U12C U37G	1.92
C16G A66G	1.14
C17G U39A	1.07
C16A A56G	0.41
C16U A94G	0.94
A13G A51G	0.85
A13C A116G	0.96
G15U A126U	0.79
C16A A60G	0.51
A13U A114G	0.09
A13U A114U	0.07
U12C U139C	1.41
C16G A59U	1.17
